How the values were obtained:
[1] = molecular target: T1, HNE-stabilized human α-synuclein protofibrils (human, UniProt P37840 1-140); assay: competition ELISA
[2] = molecular target: ONE-stabilized human α-synuclein protofibrils (human, UniProt P37840 1-140); assay: competition ELISA
α-synuclein monomers = α-synuclein monomers (human, UniProt P37840 1-140); assay: competition ELISA, antigen in solution against plate coated with protofibrils
Procedure: (§1) Specifically, a high-binding ELISA microtiter plate was coated with 100 μl/well of 1 μg/ml of α-synuclein protofibril, diluted in 1×PBS, sealed with adhesive sealer and incubated overnight at +4° C. Then, the coating solution was discarded and the residual binding capacity of the plate was blocked by adding 200 μl/well of PBS-Tween 20 (0.05%). The sealed plate was incubated for 60 min at room temperature (R.T.) by shaking at 900 rpm.
(§2) Meanwhile, peptide solution was prepared in 1×PBS-Tween 20 (0.05%) by diluting α-synuclein monomers or protofibril to a concentration of 140 nM. A 10-step 3× dilution series of α-synuclein monomers and protofibrils was performed in a volume of 50 μl in a round bottomed, low protein binding microtiter plate. To this solution, 50 μl of the tested antibody diluted in PBS-Tween 20 (0.05%) to a concentration of 100 ng/ml was added and allowed to interact for 60 min at R.T. by shaking at 900 rpm. Sub sequentially, these pre-incubated samples were added to the washed (3× wash) coated high-binding plate and allowed to incubate for 15 min at R.T. without shaking. The ELISA plate was then washed to remove unbound antibodies.
(§3) Finally, the ELISA plate was washed to remove unbound antibodies and 100 μl of ALP-substrate were added to each well. The plate was kept dark during incubation at R.T. until a yellow color developed. Absorbance values were measured on continuous mode at a wavelength of 405 nm every 15 minutes up to 120 minutes.

[3] = molecular target: T1, HNE-stabilized human α-synuclein …; assay: as above
Procedure: as §1, §2, §3

Measured: binding result

B1: mAb38F11/2-8 (antibody, V domains shown)
VH: EVMLVESGGGLVKPGGSLKLSCAASGFTFSSYAMSWVRQTPEKRLEWVATISNGGSYTYYPDSVKGRFTISRDNAKNTLYLQMSSLRSEDTAMYYCARHSDYSGAWFAYWGQGTLVTVSA
VL: QIVLTQSPAIMSASPGEKVTISCSASSSVSYMYWYQQKPGSSPKPWIYRTSNLASGVPARFSGSGSGTSYSLTISSMEAEDAATYYCQQYHSYPYTFGGGTKLEIK
notes: Mouse monoclonal antibody from hybridoma; also called BA3
binds: [1] | [2] | α-synuclein monomers

B2: mAb48B11/8 (antibody, V domains shown)
VH: EVQLQESGPSLVKPSQTLSLTCSVTGDSFTSGYWNWIRKFPGNKLEYMGYIRYSGNTYYNPSLKSRISITRDTSKNQYYLQLISVTTEDTATFYCARSYYDYDRAWFAYWGQGALVTVSA
VL: DVVMTQTPLSLPVSLGDQASISCRSSQSLVHSNGNTYLHWYLQKPGQSPKLLIYKVSNRFSGVPDRFSGSGSGTDFTLKISRVEAEDLGVYFCSQSTHVPWTFGGGTKLEIK
notes: Mouse monoclonal antibody from hybridoma; also called BA4
binds: [1] | [2] | α-synuclein monomers

B3: mAb49/G (antibody, V domains shown)
VH: EVQLVETGGGLVQPKGSLKLSCATSGFTFNTYAMNWVRQAPGKGLEWVARIRTKSNDYATYYADSVKGRITISRDDSQSMLYLQMNNLKTEDTAMYYCVRVGYRPYAMDYWGQGTSVTVSS
VL: DVLMTQTPLSLPVSLGDQASISCRSSQNIVHSNGNTYLEWYLQKPGQSPTLLIYKVSNRFSGVPDRFSGSGSGTDFTLKISRVEAEDLGVYYCFQGSHVPLTFGAGTKLELK
notes: Mouse monoclonal antibody from hybridoma, detected with anti-mouse IgG; constant regions are not; also called BA1
binds: [2] | [3] | α-synuclein monomers

Reference: patent publication US20150139900A1 (BIOARCTIC NEUROSCIENCE, published 2015)
